In patent publication US8394929B2, “Nogo receptor-mediated blockade of axonal growth” (Yale University, priority 2000, dated 2013):

Experiments:
NgRΔCT = molecular target: T1, NgRΔCT (Mus musculus, UniProt Q99PI8); experiment: AP-NgR binding to COS-7 cells transfected with NgRΔCT
T1 construct: encodes residues 26 to 305 and 443 to473 of mNgR; vector secretion signal (pSecTag2) (N); 6xHis (C); expressed in transfected cells; host or cells: COS-7
T1 sequence (Q99PI8 with tags, fused parts or gaps): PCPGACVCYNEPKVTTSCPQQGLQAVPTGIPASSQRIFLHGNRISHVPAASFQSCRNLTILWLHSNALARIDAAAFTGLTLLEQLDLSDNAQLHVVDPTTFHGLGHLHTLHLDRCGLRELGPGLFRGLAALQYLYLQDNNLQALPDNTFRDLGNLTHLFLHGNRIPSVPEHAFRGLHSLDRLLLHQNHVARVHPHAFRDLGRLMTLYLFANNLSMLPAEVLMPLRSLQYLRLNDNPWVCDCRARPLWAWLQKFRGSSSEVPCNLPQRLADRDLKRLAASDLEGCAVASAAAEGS
Method: (§1) A vector encoding AP-hNogo-A (1055-1120) was constructed as described in Fournier et al., supra). The vector encoding AP-NgR was made by ligating the mNgR coding sequence from residues 27-451 in frame with the signal sequence-6× His—placental alkaline phosphatase (AP) sequence of the vector known as pAP-6 (Nakamura et al., Neuron 2: 1093-1100, 1988).
(§2) NgR was tested for the ability to self-associate. For this study, mNgR [hereinafter, wtNgR or WT] and mNgR deletion mutants (see FIG. 18A) were transfected into COS-7 cells. Forty-eight hours after the transfection, the transfected COS-7 cells were washed with HBH. Cells were then incubated for 2 hours at 23° C. with a conditioned medium containing […] diluted in HBH. AP-fusion protein was detected as previously described for AP-Sema3A (Takahashi et al., Nature Neurosci. 1:487-493, 1998). Similar to the AP-Nogo binding profile, AP-NgR bound to wtNgR and NgRΔCT (FIG. 23). Nogo treatment had little, if any, effect on the NgR-NgR interaction (data not shown). […] The same NgR domains are required for GST-hNogo-A (1055-1120) binding and NgR oligomerization

NgR deletion mutants = experiment: AP-NgR binding to COS-7 cells transfected with other NgR deletion mutants; design: species or system mouse
Method: as §1, §2

wtNgR = molecular target: T2, wtNgR (Mus musculus, UniProt Q99PI8); experiment: AP-NgR binding to COS-7 cells transfected with wtNgR
T2 construct: wtNgR encodes residues 1 to 473 of mNgR; vector secretion signal (pSecTag2) (N); 6xHis (C); expressed in transfected cells; host or cells: COS-7
T2 sequence (Q99PI8 27-473): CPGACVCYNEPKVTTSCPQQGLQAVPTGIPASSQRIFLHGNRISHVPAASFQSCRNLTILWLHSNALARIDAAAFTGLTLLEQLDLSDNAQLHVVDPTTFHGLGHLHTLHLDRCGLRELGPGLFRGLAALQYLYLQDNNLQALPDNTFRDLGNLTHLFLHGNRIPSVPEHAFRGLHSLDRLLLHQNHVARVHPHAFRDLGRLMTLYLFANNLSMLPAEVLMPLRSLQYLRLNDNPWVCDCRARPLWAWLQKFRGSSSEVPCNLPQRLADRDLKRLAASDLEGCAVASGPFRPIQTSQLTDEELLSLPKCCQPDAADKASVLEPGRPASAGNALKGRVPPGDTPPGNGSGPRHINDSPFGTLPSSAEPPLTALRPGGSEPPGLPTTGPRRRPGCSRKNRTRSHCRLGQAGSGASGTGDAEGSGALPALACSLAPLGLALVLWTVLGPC
Method: as §1, §2

B1: AP-NgR: mNgR residues 27-451 fused to signal sequence-6x His-placental alkaline phosphatase (protein)
chain: HHHHHHIIPVEEENPDFWNREAAEALGAAKKLQPAQTAAKNLIIFLGDGMGVSTVTAARILKGQKKDKLGPEIPLAMDRFPYVALSKTYNVDKHVPDSGATATAYLCGVKGNFQTIGLSAAARFNQCNTTRGNEVISVMNRAKKAGKSVGVVTTTRVQHASPAGTYAHTVNRNWYSDADVPASARQEGCQDIATQLISNMDIDVILGGGRKYMFRMGTPDPEYPDDYSQGGTRLDGKNLVQEWLAKRQGARYVWNRTELMQASLDPSVTHLMGLFEPGDMKYEIHRDSTLDPSLMEMTEAALRLLSRNPRGFFLFVEGGRIDHGHHESRAYRALTETIMFDDAIERAGQLTSEEDTLSLVTADHSHVFSFGGYPLRGSSIFGLAPGKARDRKAYTVLLYGNGPGYVLKDGARPDVTESESGSPEYRQQSAVPLDEETHAGEDVAVFARGPQAHLVHGVQEQTFIAHVMAFAACLEPYTACDLAPPAGTTDAAHPGCPGACVCYNEPKVTTSCPQQGLQAVPTGIPASSQRIFLHGNRISHVPAASFQSCRNLTILWLHSNALARIDAAAFTGLTLLEQLDLSDNAQLHVVDPTTFHGLGHLHTLHLDRCGLRELGPGLFRGLAALQYLYLQDNNLQALPDNTFRDLGNLTHLFLHGNRIPSVPEHAFRGLHSLDRLLLHQNHVARVHPHAFRDLGRLMTLYLFANNLSMLPAEVLMPLRSLQYLRLNDNPWVCDCRARPLWAWLQKFRGSSSEVPCNLPQRLADRDLKRLAASDLEGCAVASGPFRPIQTSQLTDEELLSLPKCCQPDAADKASVLEPGRPASAGNALKGRVPPGDTPPGNGSGPRHINDSPFGTLPSSAEPPLTALRPGGSEPPGLPTTGPRRRPGCSRKNRTRSHCRLGQAGSGASGTGDAEGSGALP
binding (in words) (NgRΔCT): bound | binding (in words) (NgR deletion mutants): did not bind | binding (in words) (wtNgR): bound
